From US20260258128A1 come the findings set out here.

Test [1] concerns the target CD3 on T cells of human peripheral blood mononuclear cells (human) (UniProt P07766). As to the kind of experiment: cell-based or functional assay.
In test [2] the target is human CD3εδ (human) (UniProt P07766). As to the kind of experiment: SPR (Biacore T200), binding to CD3εδ against binding to CD3εγ. Background: SPR reads the build-up and loss of mass on a sensor chip optically.
human CD3εδ (human), sequence (P07766 23-126, stated change not applied, chain 1 of 2): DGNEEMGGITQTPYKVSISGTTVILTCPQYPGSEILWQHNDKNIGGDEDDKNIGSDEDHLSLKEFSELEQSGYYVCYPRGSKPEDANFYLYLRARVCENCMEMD
human CD3εδ (human), sequence (P04234 22-105, stated change not applied, chain 2 of 2, further chain): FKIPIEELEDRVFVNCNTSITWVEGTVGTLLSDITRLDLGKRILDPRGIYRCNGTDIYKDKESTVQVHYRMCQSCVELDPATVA

CD3 on T cells of human peripheral blood mononuclear cells (human), sequence (P07766 23-207): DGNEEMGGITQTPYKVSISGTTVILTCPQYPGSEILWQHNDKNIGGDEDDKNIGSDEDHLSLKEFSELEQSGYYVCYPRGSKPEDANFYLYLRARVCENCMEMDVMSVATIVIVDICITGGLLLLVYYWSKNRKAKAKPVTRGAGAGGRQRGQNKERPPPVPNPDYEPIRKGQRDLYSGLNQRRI

As to CD3 (UCHT1)-binding monoclonal antibody, in test [1], the Death of cancer cells EC50 (MDA-MB-231 + human PBMC, flow cytometry) is 0.5 pM; the Death of cancer cells Emax (%) worked out at 46%; the IFNγ release EC50 worked out at 3 pM; the IFNγ release Maximum concentration amounted to 16 ng/mL. The substance also registered a T cell activation (CD3+ CD8+ CD69+), human PBMC only, flow cytometry in test [1] of 60%. Further, the ratio of the binding strength to CD3εδ/binding strength to CD3εγ in test [2] stood at 19.3 fold.
